Results on three molecules are retold here after patent US20150086555A1.

Details in all cases: remark: other sources report otherwise
Assay [1] addresses recombinant soluble homotrimeric HA of H1N1 A/California/04/09 (Influenza A virus A/California/04/2009(H1N1)). Briefly: ProteOn biosensor, HA-CA captured on anti-V5 surface, Fab in solution.
The target of assay [2] is T1, recombinant soluble homotrimeric HA of A/California/4/09 (H1N1) (Influenza A virus A/California/04/2009(H1N1)).
The target in assay [3] is recombinant soluble homotrimeric HA of A/Hong Kong/1073/99 (H9N2) (Influenza A virus A/Hong Kong/1073/99 (H9N2)).
In assay [4] the target is T2, recombinant soluble homotrimeric HA of A/South Carolina/1/18 (H1N1) (Influenza A virus A/South Carolina/1/18 (H1N1)).
In assay [5] the target is recombinant soluble homotrimeric HA of A/Vietnam/1203/04 (H5N1) (Influenza A virus A/VietNam/1203/2004(H5N1)).
The target of assay [6] is T3, recombinant soluble homotrimeric HA of A/Egypt/3300-NAMRU3/08 (H5N1) (Influenza A virus A/Egypt/3300-NAMRU3/2008(H5N1)).
Assay [7] deals with T4, recombinant soluble homotrimeric HA of A/northern shoveler/California/HKWF115/07 (H6) (Influenza A virus A/northern shoveler/California/HKWF115/2007(H6N1)).
For assay [8], the target named is recombinant soluble homotrimeric HA of A/Hong Kong/156/97 (H5N1) (Influenza A virus A/Hong Kong/156/97 (H5N1)).
The target of assay [9] is recombinant soluble homotrimeric HA of A/chicken/Vietnam/NCVD-016/08 (H5N1) (Influenza A virus A/chicken/Vietnam/NCVD-016/2008(H5N1)).
In assay [10] the target is T5, recombinant soluble homotrimeric HA of A/Hong Kong/2108/03 (H9N2) (Influenza A virus A/HK/2108/2003(H9N2)).
Assay [11] deals with T6, recombinant soluble homotrimeric HA of A/Anhui/1/05 (H5N1) (Influenza A virus A/Anhui/1/2005(H5N1)).
Assay [12] addresses recombinant soluble homotrimeric HA of A/Japan/305/57 (H2N2) (Influenza A virus A/Japan/305/1957(H2N2)).
Assay [13] has as its target recombinant soluble homotrimeric HA of A/swine/Ontario/01911-2/99 (H4N6) (Influenza A virus A/Swine/Ontario/01911-2/99 (H4N6)).
The target of assay [14] is T7, recombinant soluble homotrimeric HA of A/Indonesia/5/05 (H5N1) (Influenza A virus A/Indonesia/5/2005(H5N1)).
For assay [15], the target named is T8, recombinant soluble homotrimeric HA of A/Netherlands/219/03 (H7N7) (Influenza A virus A/Netherlands/219/03(H7N7)).
Assay [16] has as its target T9, recombinant soluble homotrimeric HA of A/duck/Yangzhou/02/05 (H8N4) (Influenza A virus A/duck/Yangzhou/02/2005(H8N4)).
The target of assay [17] is recombinant soluble homotrimeric HA of A/Solomon Islands/3/06 (H1N1) (Influenza A virus A/Solomon Islands/3/2006(H1N1)).
The target in assay [18] is recombinant homotrimeric HA A/northern shoveler/California/HKWF115/07 H6N4 (Influenza A virus A/northern shoveler/California/HKWF115/2007(H6N1)). As to the kind of experiment: protein microarray, purified IgG, trimeric HA.
The target of assay [19] is recombinant homotrimeric HA A/Indonesia/5/05 H5N1 (Influenza A virus A/Indonesia/5/2005(H5N1)). Briefly: protein microarray, purified IgG, trimeric HA.
For assay [20], the target named is recombinant homotrimeric HA A/Wisconsin/67/05 H3N2 (Influenza A virus A/Wisconsin/67/2005(H3N2)). As to the kind of experiment: protein microarray, purified IgG, trimeric HA.
Assay [21] deals with recombinant homotrimeric HA A/Japan/305/57 H2N2 (Influenza A virus A/Japan/305/1957(H2N2)). Briefly: protein microarray, purified IgG, trimeric HA.
Assay [22] addresses recombinant homotrimeric HA A/South Carolina/1/18 H1N1 (Influenza A virus A/South Carolina/1/18 (H1N1)). As to the kind of experiment: protein microarray, purified IgG, trimeric HA.
Assay [23] has as its target recombinant homotrimeric HA A/Vietnam/1203/04 H5N1 (Influenza A virus A/VietNam/1203/2004(H5N1)). Briefly: protein microarray, purified IgG, trimeric HA.
For assay [24], the target named is recombinant homotrimeric HA A/duck/Yangzhou/02/05 H8N4 (Influenza A virus A/duck/Yangzhou/02/2005(H8N4)). As to the kind of experiment: protein microarray, purified IgG, trimeric HA.
Assay [25] concerns the target recombinant homotrimeric HA A/Netherlands/219/03 H7N7 (Influenza A virus A/Netherlands/219/03(H7N7)). Briefly: protein microarray, purified IgG, trimeric HA.
In assay [26] the target is recombinant homotrimeric HA A/swine/Ontario/01911-2/99 H4N6 (Influenza A virus A/Swine/Ontario/01911-2/99 (H4N6)). As to the kind of experiment: protein microarray, purified IgG, trimeric HA.
For assay [27], the target named is recombinant homotrimeric HA A/Hong Kong/156/97 H5N1 (Influenza A virus A/Hong Kong/156/97 (H5N1)). Briefly: protein microarray, purified IgG, trimeric HA.
The target in assay [28] is recombinant homotrimeric HA A/Egypt/3300-NAMRU3/08 H5N1 (Influenza A virus A/Egypt/3300-NAMRU3/2008(H5N1)). Briefly: protein microarray, purified IgG, trimeric HA.
Assay [29] has as its target recombinant homotrimeric HA A/Anhui/1/05 H5N1 (Influenza A virus A/Anhui/1/2005(H5N1)). As to the kind of experiment: protein microarray, purified IgG, trimeric HA.
The target in assay [30] is recombinant homotrimeric HA A/chicken/Vietnam/NCVD-016/08 H5N1 (Influenza A virus A/chicken/Vietnam/NCVD-016/2008(H5N1)). Briefly: protein microarray, purified IgG, trimeric HA.
Assay [31] has as its target T1, recombinant soluble homotrimeric HA of …. As to the kind of experiment: trimeric HA microarray, transfection supernatant set 3.
Assay [32] concerns the target T2, recombinant soluble homotrimeric HA of …. The assay is described as above.
Assay [33] concerns the target T3, recombinant soluble homotrimeric HA of …. The description is as above.
Assay [34] deals with T10, recombinant soluble homotrimeric HA of A/Wisconsin/67/05 (H3N2) (Influenza A virus A/Wisconsin/67/2005(H3N2)). The assay is described as above.
In assay [35] the target is T5, recombinant soluble homotrimeric HA of …. The description is as above.
Assay [36] addresses T6, recombinant soluble homotrimeric HA of …. The assay is described as above.
For assay [37], the target named is T7, recombinant soluble homotrimeric HA of …. The assay is described as above.
Assay [38] deals with T8, recombinant soluble homotrimeric HA of …. The assay is described as above.
Assay [39] deals with T9, recombinant soluble homotrimeric HA of …. The assay is described as above.
In assay [40] the target is T4, recombinant soluble homotrimeric HA of …. Briefly: HA microarray, BCC supernatant.
In assay [41] the target is T10, recombinant soluble homotrimeric HA of …. As to the kind of experiment: HA microarray, BCC supernatant.
The target of assay [42] is T6, recombinant soluble homotrimeric HA of …. Briefly: HA microarray, BCC supernatant.
Assay [43] addresses T9, recombinant soluble homotrimeric HA of …. As to the kind of experiment: HA microarray, BCC supernatant.

Where “and” joins values, the source holds several entries; their conditions need not be identical. Identical values can stand only once. Like-named read-outs stand apart in the source and are kept apart here.

B1: Fab fragment of TCN-522 (Fab, V domains shown)
VH: QVQLQQWGAGLLKPSETLSLTCTVSGGSLTDYSWNWIRQPPGKGLEWIGDTLHNGYTNYNPSLRGRVSISIDTSKNQVSLRLTSVTAADTALYYCARGSGGYGGFDYFGKLRTWDFWGQGTLVTVSS
VL: DIQLTQSPSSLSASVGDRVTITCRASQGIRNDLGWYQQKPGNAPKRLIFGASSLQSGVPSRFSGSGSGTEFTLTISSLQPEDFATYYCLQHNSYPYTFGQGTKLEIK
Turning to B1, the fold slower on-rate (ka) than the other Fabs in assay [1] was 5 fold and 8 fold.

B2: TCN-564 (5256_A17b) (antibody, V domains shown)
VH: QVQLVQSGADVKKPGSSVTVSCKASGGSFSNYGINWVRQAPGQGLEWMGGIIPLINAPNYAPKFQGRVTITADMFSNIVSLQLTSLRTDDTAVYYCARRKMTTAIDYWGQGTLVTVSS
VL: QPVLSQPPSASASLGASVTLTCTLSSGFDNYQVAWYQQRPGKGPRFVMRVGNGGNVASKGDGIPDRFSVSGSGLNRYLTIKNIQEDDESDYYCGADHGSGNNFVSPYVFGGGTKLTVL
Take B2: the Trimeric HA Binding: RLU stood at 27500 RLU in assay [2]; 9470 RLU in assay [3]; 15100 RLU in assay [4]; 25400 RLU in assay [5]; 19900 RLU in [6]; 16000 RLU in assay [7]. Further, the Trimeric HA Binding: RLU in assay [8] came to 18100 RLU; in [9], 5860 RLU; in [10], 272 RLU; in assay [11], 4260 RLU; in assay [12] it was 20200 RLU; in assay [13], 251 RLU. Further, the Trimeric HA Binding: RLU in assay [14] came to 26300 RLU; in assay [15], 1410 RLU; in assay [16] it was 369 RLU; in [17] it was 8570 RLU.

B3: TCN-531 (5091_H13) (antibody, V domains shown)
VH: EVQLVESGGDLVQPGRSLKLSCTGSGFTFGDYGVTWVRQAPGKGLEWVGFIRTRPWGGTADTAASVKGRFTISRDDSKSLAYLQMNSLKTEDTAVYYCCRDAPPNVEVASMTNWYFDLWGRGTLVTVSS
VL: DIQLTQSPSSLSASVGDRVTITCRASQGILNCLAWYQQKPGKVPNLLMYAASTLQSGVPSRFSGSGFGTDFTLTISSLQPEDVATYYCQTYGGVSTFGGGTKVEIR
B3: the Trimeric HA Binding: RLU in [18] was 45 RLU; in assay [19], 84 RLU; in assay [20], 20600 RLU; in assay [21], 441 RLU; in assay [22], 56 RLU; in [23], 488 RLU. The Trimeric HA Binding: RLU in assay [24] was 112 RLU; in assay [25], 170 RLU; in assay [26], 84 RLU; in assay [27], 259 RLU; in assay [28] it was 2810 RLU; in [29] it was 4960 RLU. Further, the Trimeric HA Binding: RLU in [30] was determined as 124 RLU; in assay [31], 2830 RLU; in assay [32], 1560 RLU; in assay [33], 363 RLU; in assay [34], 4160 RLU; in [35], 158 RLU. In addition, the Trimeric HA Binding: RLU amounted to 76 RLU in assay [36]; 54 RLU in assay [37]; 384 RLU in assay [38]; 3220 RLU in assay [39]; 43900 RLU in [40]; 7090 RLU in [41]. The Trimeric HA Binding: RLU is 3610 RLU in [42] and 3120 RLU in [43].
